Test results reported in the nanobody polyreactivity screen of Harvey et al. (2022).

Assay: yeast display, Sf9 membrane polyspecificity reagent, FACS + sequencing; frameworks hold sequencing errors
Procedure, shortened: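 In a synthetic yeast display library (Saccharomyces cerevisiae BJ5465), nanobody expression was induced with galactose for 36–48 hours. FACS gates were set low and high (top ~1%) using anti-HA fluorescence for expression and streptavidin fluorescence for binding of the Sf9 membrane reagent. Each polyreactivity label is drawn from the gate of origin.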

Sequence	polyreactivity (PSR sort gate)
QVQLVKSGGGLVQAGGSLRLSCAASGTFRLYAMGWYRQAPGKERDFVAAITYGGVGTYYADSVKGRFTISRDNAKHTVYLQMNSLNPEDTAVSYCAAELYLTDTDVEYSYWGQGTQVTVSS	low polyreactivity
QVQLVESGGGLVQAGGSLRLSCAASGSTFYQYAAMGWYRQAPGKERELVAAISGRGTRTYYADSVKGRFTISRDNAKNTVYLQMNSLKPEDTAVYYCAAEVNIRQYGFDYWGQGTQVTVSS	high polyreactivity
QVQRVESGGGLVQAGGSLRLSCAASGFTFTDYAMGWYRQAPGKERELVAAITIGGGRTYYADSVKGRFTISRDNAKNTVYLQMNSLKPEDTAVYYCNARYQVPYGYWGQGTQVTVSS	low polyreactivity
QVQLVESGGGLVQAGGSLRLSCAASGRTFYTYAMGWYRQAPGKERELVAAINWSATRTYYADSVKGRFTISRDNAKNTVYLQMNSLKPEDTAVYYCNAVYYRSSYPSGRYGMDYWGQGTQVTVSS	high polyreactivity
QVQLVESGGGLVQAGGSLRLNCAASGRTLVLYVMGWYRQAPGKERELVAAISRSGGRTYYADSVKGRFTISRDNAKNTVYLQMNSLKPEDTAVYYCAAYTSYASDYWGQGTLVTVSS	high polyreactivity
QDQLVESGGGLVQAGVSLRISCAASGFTFRGNAMGWYRQAPGKERELVAAITSSDDSTYYADSVKGRFTNSRDNAKNTVYLQMNSLKPEDTAVYYCAAVANGYWTYEYWGQGTQVTVSS	low polyreactivity
QVQLVESGGGLVQAGGSLRLSCAASGPTFYRYAMGRYRQAPGKERELVAAISASGGSTYYADSVKGRFTISRDNAKNTVYLQMNSLKPEDTAVYYCAARGWYSLYEFYYWGQGTQVTVSS	high polyreactivity
QVQLVESGGGLVQAGGSLRLSCAASGRTSRSNAMGWYRQAPGKERELVAAISSGGSTYADSVKGRFTISRDNAKNTVYLQMNSLKPEDTAVYYCAARYRTRYAGYNYWGQGTQVTVSS	high polyreactivity
QVQLVESGGGLVQAGGSLRLSCGSSGSIFKTNAMGWYRQAPGKERELVAANTWRGGSTYYADSVKGRFTNSRDNAKNTVYLQRNSLKPEDTAVYYCAARQYYGAASYRYYYWGQGTQVTVSS	high polyreactivity
QVQLVESGGGLVQAGGSLRLSCAASGIIFYRYAMGWYRQAPGKESELVAAITWSGVSTSYADSVKGRFTISRDNAKNTVYLQMNSLKPEDTAVYYCNKDPGTLYGDMDSWGQGTQVTVSS	low polyreactivity
QVQLVESGGGLVQAGGSLRLSCAASGRTFYLYAMGWYRPAPGKERELVAAITWRGGSTYYADSVKGRFTISRDNAKNTVYLQMNSLKPEDTAVYYCAAVTFFYYSAVRYEYYYWGQGTQVTVSS	high polyreactivity
QVQLVESGGGLVQAGGSLRLSCAASGRTFGLYAMGWYRQAPGKERELVADINGSGTRTYYADSVKGRFTISRDNAKNTVYLQMNSLKPEDTAVYYCYGRYHWLYYWGQGTQVTVSS	high polyreactivity
QVQLVESGGGLVQAGGSLRLSCAASGNTFPVYAMGWYRQASGKERELVATITSGGSTNYADSVKGRFTISRDNAKNTVYLQMNSLKPEDTAVYYCARRAVYSKRRYDYWGQVTQVTVSS	low polyreactivity
QVQLVESGGGVVQAGGSLRLTCAASGLTFNIYSLGWYRQAPGKEREFDATISSSGGGTYYADSVKGRFSISRDHAKNTVYVQLHSLPPEDTAVYYCARDSPDHVTYLHYHYDYWGQGTQVTVSS	low polyreactivity
QVQLVESGGGLVQAGGSLRLSCAASGSIFDLYDMGWYRQAPGKERELVADISFSGGSTFYADSVKGRFTISRDNAKNTVYLQMNSLKPEDTAVYYCAADAALITDYGWADMYYWGQGTQVTVSS	low polyreactivity
QVQVVESGGGLVQAGGSLRLSCAASGIIFGAYAMGWYRQAPWKEMELVAAITYSSGSTYYADSVKGRFTISRDNSKNTVYLQMNSLKPEDTAVYYCDKTNFSQSSRFNYDYWGQGTQVTVSS	low polyreactivity
QVQLVESGGGLVQAGGSLRLSCAASGSNFQRYTMGWYSQAPGKERELVAAITSRSGRTYYADSVKGRFTISRDNAKNTVYLQMNSLKPEDTAVYYCATVPYDQTRGYKYDYWGQGTQVTVSS	high polyreactivity
QVQLVESGGGLVQAGGSLRLSCAASGSTFIVNAMGWYRQAPGKERELVAAITEDGDTTYYADSVKGRFTISRDHAKKTVYLQMNSLKPEDTAVYYCAARTYRGLADDYWGQGTQVTVSS	high polyreactivity
QVQLVESGGGLVQAGGSLRLSCAASGSTFTPYGMGWYRQAPGKERELVAAITVSGGRTYYADSVKGRFTISRDNAKNTVYLQMNSLKPEDTAVYYCAAVYLRGDGEYDSWGQGTQVTVSS	low polyreactivity
QVQRVESGGGLVQAGGSLLLSCAPSGSIFSDNSMGWYRQAPGKERELVAAITSGGDTKYADSVKGRFTISRDNAKNTVYLQMNSLKPEDTAFYYCAAGIRYQASFDSWGQGTQVTVSS	low polyreactivity
QVKLVESGGGLVQAGGSHRLSCPASGRIFYPYAMGWYRQAPGKESELVAAISWSTVSTYYADSVKGRFTISRDNAKNNVYLQMNSLKPEDTAVYYCAARLYFSSSLRCVDFWGQGTQVTVSS	high polyreactivity
QDQLVESGGGLDQAGGSLRLSCAASGRILIIYAMGWYRQAPGKERELVARITYTGGRTYYADSVKGRFTISRDNAKNTVYLQMTSLKPEDTAVYYCATVWSRSDSSSHYDYWGQGTQVTVSS	low polyreactivity

Sequence	polyreactivity (PSR sort gate)
QVQLVESGGGLVQAGGSLRLSCAASGRTFVPYAMGWYRQAPGKEREFLAAISWRGGSTYYADSVKGRFTISRDNAKNTVYLQMNSLKPEDTAVYYCAARYKRGFGVRFGYDYWGQGTQVTVSS	high polyreactivity
HVNLVESGGGLVKAGGSLRLTCDASGITFYEYAMGRYRRAPGKELELVAGIRLSGSTTYYADSVKGRFTISRDNSKNTVYLQMHSLKPEDTAVYYCNVDYYSGLYDYDSWGQGTQVTVSS	low polyreactivity
QVQLVESGGGLVQAGGSLRLSCAASGFTFSVNAMGRYRQAPGKERELVAAISSRGSITYYADSVKGRFTISRDNAKNTVYLQMNSLKPEDPAVYYCNAYKYKSPGDYWGQGTQVTVSS	high polyreactivity
QVQLVESGGGLVQAGGSLRLSCAASGFTFRNYAMGWYRQAPGKEREFVAAISFSGGRTYYADSVKGRFTISRDNAKITVYLQMNSLKPEDTAVYFCAKKSYSKYEYWGQGTQVTVSS	low polyreactivity
QVQLVESGGGLVQAGGSLRLSCAASGFIFHGYTMGWYRQAPGKEMDMVARISFTGGSTYYADSVKGRFTISRDNAKNTVYLQMNSLKPEDTAVYYCAATYSSYWARYYYWGQGTQVTVSS	high polyreactivity
QVQLVESGGGLVQAGGSLRLSCAASGRIFYRYAMGWYRQAPGKERELVAAISSGSSTNYADSVKGRFTISRDNAKNTVYLQMNSLKPEDTAVYYCNAERYGKSWRYCYWGQGTQVTVSS	high polyreactivity
QVQLVESCGGLVQAGGSLRLSCAATGSTIRTYAMGWYRQAPGTERELVAAISRSGGRTYYADSVKGRFTISRDNAKNTVYLQMNSLTPEDTAVYYCAKVSQRRVDTSDYDYWGQGTQVTVSS	high polyreactivity
QVQLVESGGGLVQAGGSLRLRCAASGRTFRTYTMGWYRKAPGKERELVAAISYSGGSTYYADSVKGRFTISRDNAKNTVYLQMNSLKPEDTAVYYCAIRPYPYKYDYWGQGTQVTVSS	high polyreactivity
QVQLVESGGGLVQAGGSLRLSCAASGRISYSYAMGWYRQAPGKERELVAAISYSGGTTYYADSVKGRFTISRDNAKNTVYLQMNSLKPEDTAVYYCAVDGYDTYGFNGYYIRSGYWGQGTQVTVSS	low polyreactivity
QVQLEETGGGLVQAGGSLRLSCSASGRTLYYYAMGWYRQAHGKDRELVAAISKRGGSTYYADSVQGRFTISRDNAKNTVYLQINSLKPVDTAVFYCAASSGLDSWGQGTQVTVSS	high polyreactivity
QVQLVESGGGLVQAGGSLRLSCAASGSTFAKYVMGWYRQAPGKERELVAAISTRGTRTYYADSVKGRFTISRDTAKNTVYLQMNSLKPEDTAVYYCAVVTIISSRLGNYWGQGTQVTVSS	high polyreactivity
QVQLEESGGGLVQAGGSLRLSCAASGAIFDGYGMGGYSQAPGQERELVAAIRWGDGITYYADSVKGRFTISRDNAKTTVYLQMNRLKPDDTAVYYCAAVQHGHEPRVQASYDYWGQGTQVTVSS	low polyreactivity
QVQLVESGGGLVQAGGSLRLSCAASGIILYGYAMGWSRQAPGKERELVAAITKSGGSTYYADSVKGRFTISRDNAKNTVYLQMNSLKPEDTAVYYCAAKRWGIWYYGYRPDDYWGQGTQVTVSS	low polyreactivity
QVQLVESGGGLVQAGGSLRLSCAASGRTFADYAMGWYRQAPGKERELVAAISWRGGSTYYADSVKGRFTISRDNAKNTVYLQMNSLKPEDTAVYYCNKAYPADYDYWGQGTQVTVSS	low polyreactivity
QVQLVESGGGLVQAGGRLRLSCAASASTFSDYAMGWYRQAPGKERELVATITSTGDTNYADSVKGRFTISRDNAKNTVYFQMYSLKPVDTAVYYCAAQHKKYGKRGLWNNFGYWGQGTQVTVSS	low polyreactivity
QVQLVESGGGLVQAGGSLRLSCAASGRTFYIYAMGWYRQAPGKERELVAAISWGSGSTYYADSVKGRFTISRDNAKNTVYLQMNSLKPEDTAVYYCAAEYAYPSEWTYDYWRQGTQVTVSS	low polyreactivity
QVQLVESGGGLVQAGGSLRLSCDASGFIIRRNAMGWYRQAPGKEREFVAAITWSGGSTYYADSVKGRFTISRDNAKNTVYLQMYSLKPEDTAVYYCAATYSQYWYTQYLNSYPGYDYWRQGTQVTVSS	low polyreactivity
QVQLVESGGGLVQAGGSLRLSFAASGRIFSDNAMGWYRQAPGKERELVATINYSGGSTYYADSVKGRFTISRDNAKNTFYLQMNSLKPEDTAVYYCATRIPHRIIYYDYDYWGQGTQVTVSS	low polyreactivity
QVQLVESGGGLVHAGGSLRISCAASGRTFLPYTMGGYRQAHGSERELVADITTSDGSTYYADSVKGRFTISRDYAKNTVYLQMNSLKPEDTAVFYCAAESPWFWAVFDYWGQGTQVTVSS	high polyreactivity
QVQLVESGGGLVQAGGSLRLSCAASGSTFWNAMGWYRQAPGKERELVAAIRLSGGSTYYADSVKGRFTISRDNAKNTVYLQMNRLKPEDTAVYYCATDLVFVSSDLQETAYYWGQGTQVTVSS	low polyreactivity
QFQLVESGGGLVQAGGSLRLSCAASGYIFYGYVMGWYRQAPGKERELVAGITYSGGGGTHYADSVNGRFTISRDNAKNTVYLQMNSLKPEDTAVYYCAKADPQLNRTYYSYGMDYWGHGTQVTVSS	low polyreactivity
